The values that follow come from publication PMC12193154, “Effect of Mutations in the C-Terminal 22–24 Domains of Filamin C Associated with Cardio- and Myopathies on Its Interaction with Small Heat Shock Protein HspB7” (International Journal of Molecular Sciences, 2025).

Series [1] deals with the molecule itself. The series can be described thus: SEC; isolated FLNC fragments, 0.1 mg in 100 µL, Superdex 200 10/300, 0.5 mL/min, 50 mM Na-phosphate pH 7.4, 150 mM NaCl, 0.1 mM EDTA, 0.1 mM PMSF, 2 mM DTT, room temperature; apparent molecular weights from column calibration.
For series [2], the target named is T1, small heat shock protein HspB7 (full-size) (UniProt Q9UBY9 1-170).
T1 construct: small heat shock protein HspB7, full-size; also called full-size HspB7; full-length HspB7; source: recombinant, expressed and purified as described earlier [25,34]
T1 sequence (Q9UBY9 whole entry): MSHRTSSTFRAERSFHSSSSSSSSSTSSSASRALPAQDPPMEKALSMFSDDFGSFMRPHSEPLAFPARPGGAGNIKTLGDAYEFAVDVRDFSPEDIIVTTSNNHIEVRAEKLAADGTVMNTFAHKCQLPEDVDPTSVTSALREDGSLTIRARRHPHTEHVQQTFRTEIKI
The series can be described thus: native gel or EMSA; fixed HspB7 (25 or 30 µM) or AcdB7 (35 µM) in 20 mM Tris-acetate pH 7.6, 100 mM NaCl titrated with 0-120 µM FLNC fragment, 30 min at 30 °C; native 12.5% polyacrylamide gel, Tris-glycine pH 8.6; band intensities, semi quantitative, apparent affinity. Conditions: both partners purified. A general note: Mobility shift assays separate free from complexed probe on a gel.

Series [3] deals with T2, α-crystallin domain of HspB7 (AcdB7) containing residues 77-155 (UniProt Q9UBY9 77-155).
T2 construct: small heat shock protein HspB7, α-crystallin domain, residues 77-155; source: recombinant, expressed and purified as described earlier [25,34]
T2 sequence (Q9UBY9 77-155): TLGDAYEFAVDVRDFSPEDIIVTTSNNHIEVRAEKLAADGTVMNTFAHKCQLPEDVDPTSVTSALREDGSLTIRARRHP
Described as above. The note with it: both partners purified.

Series [4] deals with the molecule itself. The series can be described thus: cross-linking; isolated proteins or equimolar mixture, 30 min at 30 °C in 25 mM HEPES/NaOH pH 7.4, 100 mM NaCl, 2 mM DTT, then 0.0125% glutaraldehyde 30 min at 30 °C; SDS gel and anti-HspB7 immunoblot. A general note: In western blotting, separated proteins are transferred to a membrane and probed.

B1: wild-type (WT) C-terminal fragment of human filamin C (FLNC) containing immunoglobulin-like domains 22-24 (domain or fragment, UniProt Q14315 2403-2725, looked up)
chain: SLSDDARRLTVTSLQETGLKVNQPASFAVQLNGARGVIDARVHTPSGAVEECYVSELDSDKHTIRFIPHENGVHSIDVKFNGAHIPGSPFKIRVGEQSQAGDPGLVSAYGPGLEGGTTGVSSEFIVNTLNAGSGALSVTIDGPSKVQLDCRECPEGHVVTYTPMAPGNYLIAIKYGGPQHIVGSPFKAKVTGPRLSGGHSLHETSTVLVETVTKSSSSRGSSYSSIPKFSSDASKVVTRGPGLSQAFVGQKNSFTVDCSKAGTNMMMVGVHGPKTPCEEVYVKHMGNRVYNVTYTVKEKGDYILIVKWGDESVPGSPFKVKVP
notes: human filamin C (FLNC), Uniprot Q14315, immunoglobulin-like domains 22-24, amino acid residues 2403-2725; Dimer by SEC and cross-linking; also called WT FLNC; WT FLNC fragment; source: recombinant, expressed and purified as described earlier [23]; (ion-exchange and size-exclusion chromatography)
As usually defined, the stoichiometry N is the number of molecules, sites or subunits per partner or assembly. A word on the EC50: it is the concentration that produces a half-maximal response. With B1, the entries for the “stoichiometry N” value in series [1], in series [2] and in series [3] were 2, 2 HspB7/FLNC and 1, respectively. Besides, the EC50 in series [2] was approximately 10 µM; in series [3], approximately 20 µM.

B2: EN/D mutant (p.Glu2472_Asn2473delinsAsp) of the FLNC fragment containing immunoglobulin-like domains 22-24 (domain or fragment, human, UniProt Q14315 2403-2725, looked up)
chain: SLSDDARRLTVTSLQETGLKVNQPASFAVQLNGARGVIDARVHTPSGAVEECYVSELDSDKHTIRFIPHDGVHSIDVKFNGAHIPGSPFKIRVGEQSQAGDPGLVSAYGPGLEGGTTGVSSEFIVNTLNAGSGALSVTIDGPSKVQLDCRECPEGHVVTYTPMAPGNYLIAIKYGGPQHIVGSPFKAKVTGPRLSGGHSLHETSTVLVETVTKSSSSRGSSYSSIPKFSSDASKVVTRGPGLSQAFVGQKNSFTVDCSKAGTNMMMVGVHGPKTPCEEVYVKHMGNRVYNVTYTVKEKGDYILIVKWGDESVPGSPFKVKVP
notes: human filamin C (FLNC), Uniprot Q14315, residues 2403-2725, with Glu2472 and Asn2473 replaced by Asp (mutation associated with restrictive cardiomyopathy); also called c.7416_7418delGAA; source: recombinant, expressed and purified as described earlier [23]; (ion-exchange and size-exclusion chromatography)
On to B2, for which the “stoichiometry N” value in series [1] stood at 2; in series [2] it was 2 HspB7/FLNC; in series [3] it was 1. In addition, the figures for the concentration giving a half-maximal response (EC50) in series [2] and in series [3] were approximately 10 µM and approximately 20 µM, respectively.

B3: ΔPGL mutant (p.P2643_L2645del) of the FLNC fragment containing immunoglobulin-like domains 22-24 (domain or fragment, human, UniProt Q14315 2403-2725, looked up)
chain: SLSDDARRLTVTSLQETGLKVNQPASFAVQLNGARGVIDARVHTPSGAVEECYVSELDSDKHTIRFIPHENGVHSIDVKFNGAHIPGSPFKIRVGEQSQAGDPGLVSAYGPGLEGGTTGVSSEFIVNTLNAGSGALSVTIDGPSKVQLDCRECPEGHVVTYTPMAPGNYLIAIKYGGPQHIVGSPFKAKVTGPRLSGGHSLHETSTVLVETVTKSSSSRGSSYSSIPKFSSDASKVVTRGSQAFVGQKNSFTVDCSKAGTNMMMVGVHGPKTPCEEVYVKHMGNRVYNVTYTVKEKGDYILIVKWGDESVPGSPFKVKVP
notes: human filamin C (FLNC), Uniprot Q14315, residues 2403-2725, with deletion of the tripeptide 2643-PGL-2645 (mutation associated with restrictive cardiomyopathy); also called ΔPGL FLNC; c.7927_7935del; source: recombinant, expressed and purified as described earlier [23]; (ion-exchange and size-exclusion chromatography)
For the molecule B3, the “stoichiometry N” value in series [4] came to 2.
